This note sets out measurements from paper PMC8079451, “Phosphopeptide interactions of the Nbs1 N-terminal FHA-BRCT1/2 domains” (Scientific Reports, 2021).

As usually defined, the Kd is the free concentration of one partner at which half of the binding sites on the other are occupied at equilibrium, for simple one-to-one binding.

Square brackets hold non-standard residues; d marks the D form. Primed or numbered codes have the meaning given here. Ends that are not written are not given here. Peptide text beside a SMILES is read from it. FITC′ = fluorescein isothiocyanate label; pT = C[C@@H](OP(=O)(O)O)[C@H](N)C(=O)O; pS = N[C@@H](COP(=O)(O)O)C(=O)O

T1: hsNbs1(384) (Homo sapiens, UniProt O60934)
T1 construct: The N-terminal 384 residues of homo sapiens Nbs1 (hsNbs1(384) containing the FHA-BRCT1-BRCT2 domains); made in house; host or cells: E. coli BL21(DE3) pLacI
T1 sequence (O60934 1-384): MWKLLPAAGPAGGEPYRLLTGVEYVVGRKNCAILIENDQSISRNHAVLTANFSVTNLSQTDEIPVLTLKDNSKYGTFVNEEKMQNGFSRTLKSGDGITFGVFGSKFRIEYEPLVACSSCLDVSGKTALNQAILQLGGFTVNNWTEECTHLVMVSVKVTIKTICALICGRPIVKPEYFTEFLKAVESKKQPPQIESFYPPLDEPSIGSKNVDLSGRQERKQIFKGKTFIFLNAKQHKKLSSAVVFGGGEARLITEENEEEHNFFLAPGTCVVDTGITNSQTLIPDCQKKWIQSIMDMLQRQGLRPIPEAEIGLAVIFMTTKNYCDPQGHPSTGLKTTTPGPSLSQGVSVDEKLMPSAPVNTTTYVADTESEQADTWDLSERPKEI

T2: hsNbs1(384), the N-terminal 384 residues of homo sapiens Nbs1 containing the FHA-BRCT1-BRCT2 domains (human, UniProt O60934 1-384)
T2 construct: gene optimised for E. coli, cloned into pET30a (NdeI/HindIII); also called wt; source: E. coli BL21(DE3) pLacI, purified (Ni-NTA, HiTrap Q, Superdex 75)
T2 sequence (looked up): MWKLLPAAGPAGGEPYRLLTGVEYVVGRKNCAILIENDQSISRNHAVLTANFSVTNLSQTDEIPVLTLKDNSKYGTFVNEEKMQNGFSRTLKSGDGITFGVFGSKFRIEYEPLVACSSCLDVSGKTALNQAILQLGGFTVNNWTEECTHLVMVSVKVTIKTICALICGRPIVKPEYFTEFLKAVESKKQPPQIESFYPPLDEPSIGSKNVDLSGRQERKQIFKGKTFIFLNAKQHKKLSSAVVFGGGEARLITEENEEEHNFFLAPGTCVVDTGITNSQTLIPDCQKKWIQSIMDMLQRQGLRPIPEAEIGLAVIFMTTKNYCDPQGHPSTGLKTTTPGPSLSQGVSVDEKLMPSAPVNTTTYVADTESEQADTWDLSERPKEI

T3: hsNbs1(384)(R28S,K29S,R43A) triple mutant (human, UniProt O60934 1-384, R28S | K29S | R43A)
T3 construct: source: E. coli BL21(DE3) pLacI, purified as the wild type
T3 sequence (looked up): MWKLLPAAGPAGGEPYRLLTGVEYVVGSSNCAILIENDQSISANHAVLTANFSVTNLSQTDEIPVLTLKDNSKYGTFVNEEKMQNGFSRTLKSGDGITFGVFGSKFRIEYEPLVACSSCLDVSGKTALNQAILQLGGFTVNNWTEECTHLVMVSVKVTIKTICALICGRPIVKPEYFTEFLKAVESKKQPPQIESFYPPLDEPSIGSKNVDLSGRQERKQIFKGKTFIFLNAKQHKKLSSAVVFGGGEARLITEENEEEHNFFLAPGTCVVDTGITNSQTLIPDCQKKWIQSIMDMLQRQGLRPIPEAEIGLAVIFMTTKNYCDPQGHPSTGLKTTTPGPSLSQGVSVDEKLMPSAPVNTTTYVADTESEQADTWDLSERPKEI

B1: Chk2 pT68 phosphopeptide SLETVS(pT)QELYSIPED with C-terminal K/FITC (peptide)
peptide: SLETVS[pT]QELYSIPEDK(FITC′)
notes: Checkpoint 2 kinase (Chk2), stretch around pT68; added C-terminal lysine that carries FITC (footnote b: C-terminal K/FITC); source: synthetic peptide (GenScript)
B2: CtIP pT859 phosphopeptide WEVGFPS(pT)QTCMERGYI with C-terminal K/FITC (peptide)
peptide: WEVGFPS[pT]QTCMERGYIK(FITC′)
notes: CtIP, human, stretch around pT859; added C-terminal lysine that carries FITC (footnote b: C-terminal K/FITC); also called CtIP-859; source: synthetic peptide (GenScript)
B3: MDC1 pS329,pT331 phosphopeptide FITC-GG-FID(pS)D(pT)DAEEE (peptide)
peptide: {FITC′}-GGFID[pS]D[pT]DAEEE
notes: Gly-Gly between the N-terminal FITC and the peptide; MDC1, human, stretch around pS329 and pT331; also called hsMDC1; source: synthetic peptide (GenScript)
B4: FANCJ pT1133 phosphopeptide EDESIYF(pT)PELYDPEIE with C-terminal K/FITC (peptide)
peptide: EDESIYF[pT]PELYDPEIEK(FITC′)
notes: FANCJ helicase, stretch around pT1133; added C-terminal lysine that carries FITC (footnote b: C-terminal K/FITC); A shorter FANCJ phosphopeptide (SIYFpTPELYD) stands in the cited TopBP1 BRCT7/8 structure PDB 3AL3; also called FANCJ pThr1133 phosphopeptide; FANCJ phosphopeptide; source: synthetic peptide (GenScript)
B5: XRCC1 pS485,pT488 phosphopeptide EGVQSEGQDNGAED(pS)GD(pT)EDELR with C-terminal K/FITC (peptide)
peptide: EGVQSEGQDNGAED[pS]GD[pT]EDELRK(FITC′)
notes: XRCC1, human, stretch around pS485 and pT488; added C-terminal lysine that carries FITC (footnote b: C-terminal K/FITC); also called XRCC1 pSer485-Gly-Asp-pThr488 peptide containing a C-terminal fluorescein; source: synthetic peptide (GenScript)
B6: XRCC1 pS485,pT488 phosphopeptide FITC-GG-DNGAED(pS)GD(pT)EDELR (peptide)
peptide: {FITC′}-GGDNGAED[pS]GD[pT]EDELR
notes: Gly-Gly between the N-terminal FITC and the peptide; XRCC1, human, stretch around pS485 and pT488; also called XRCC1 pSer485-Gly-Asp-pThr488 peptide with an N-terminal fluorescein tag; source: synthetic peptide (GenScript)
B7: CtIP pT312,pT315 phosphopeptide TEDSLRFSDS(pT)SK(pT)PPQEELP with C-terminal K/FITC (peptide)
peptide: TEDSLRFSDS[pT]SK[pT]PPQEELPK(FITC′)
notes: CtIP, human, stretch around pT312 and pT315; added C-terminal lysine that carries FITC (footnote b: C-terminal K/FITC); also called test peptide containing the pThr312-Ser-Lys-pThr315; source: synthetic peptide (GenScript)
B8: CtIP pS347 phosphopeptide GLDLNTSL(pS)PSLLQPGKKK with C-terminal K/FITC (peptide)
peptide: GLDLNTSL[pS]PSLLQPGKKKK(FITC′)
notes: CtIP, human, stretch around pS347; added C-terminal lysine that carries FITC (footnote b: C-terminal K/FITC); also called CtIP pSer347 peptide; pSer347 peptide; source: synthetic peptide (GenScript)
B9: CtIP pT847 phosphopeptide FITC-GG-RYIPPN(pT)PENFWEVG (peptide)
peptide: {FITC′}-GGRYIPPN[pT]PENFWEVG
notes: Gly-Gly between the N-terminal FITC and the peptide; CtIP, human, stretch around pT847; source: synthetic peptide (GenScript)
B10: XRCC1 pS518,pT519 phosphopeptide FITC-GG-DPYAG(pSpT)DENTDSEEHQE (peptide)
peptide: {FITC′}-GGDPYAG[pS][pT]DENTDSEEHQE
notes: Gly-Gly between the N-terminal FITC and the peptide; XRCC1, human, stretch around pS518 and pT519; also called XRCC1 pSer518-pThr519 phosphopeptide; source: synthetic peptide (GenScript)
B11: hsMDC1 phosphopeptide FITC-GG-PFGFID(pS)D(pT)DVEEER (peptide)
peptide: {FITC′}-GGPFGFID[pS]D[pT]DVEEER
notes: Gly-Gly between the N-terminal FITC and the peptide; MDC1, human, one of the SDT repeats; also called second test peptide containing the pSer-Asp-pThr motif; source: synthetic peptide (GenScript)

One assay concerns the target T1, hsNbs1(384). Kind of assay: Fluorescence polarization (FP) binding of FITC-labeled phosphopeptides to hsNbs1(384). As to conditions: wild-type hsNbs1(384); FP assay. As to the method: Figure 4 Binding of FITC-labeled peptides to hsNbs1(384). Solid lines with filled data markers show normalized fluorescence polarization of the following peptides (see Table 1 for peptide sequences) as a function of the concentration of hsNbs1(384) corresponding to: CtIP-pS347 (gray); CtIP-pT847 (blue); FANCJ (green); CtIP-859 (orange); ChK2-pT68 (yellow). FP studies were performed at room temperature in 25 mM HEPES (pH 7.4), 150 mM NaCl, 1 mM EDTA, 2 mM DTT, 0.05% Tween20, 0.1% BSA after a 15-min incubation period. The data points were fit to a single-site non-cooperative model.
Phosphopeptide-protein interactions were measured by a fluorescence polarization (FP) assay. 100 nM FITC-labeled phosphopeptides were incubated at room temperature for 15 min with the indicated concentrations of hsNbs1(384) in FP buffer composed of 25 mM HEPES, 150 mM NaCl, 1 mM EDTA, 2 mM DTT, 0.05% Tween20, 0.1% BSA, pH 7.4 prior to the measurement of fluorescence polarization (POLARstar Omega microplate reader, BMG Labtech). All samples were prepared in a 96-well black flat-bottomed polypropylene microplate and each well contained 50 µL. Each well was recorded by 100 flashes with an excitation wavelength of 485 nm, and detection of emission at 520 nm. Data for the interaction of a phosphopeptide with hsNbs1(384) were analyzed using non-linear fitting with a one-site total binding model. All Kd values were determined in triplicate, and reported as mean ± standard deviation. All phosphopeptides used were synthesized by GenScript.
In general terms: In fluorescence polarisation assays a small probe gives low polarisation when free and higher when bound to something large.
For “TRVS[pS]PVFGAT [CtIP pS327, FITC-labeled CtIP pSer327 peptide that targets the tandem BRCA1 BRCT domains]”, the “binding to Nbs1(384), in words” value is reported as “does not bind”. For “DPYAG(pSpT)DENTDSEEHQE [XRCC1 pS518,pT519, FITC-labeled XRCC1 phosphopeptide with consecutively phosphorylated pSer518-pThr519]”, the “binding to Nbs1(384), in words” value is “no interaction”.

The assay is the same for the next values; noted with them: wild-type hsNbs1(384); FP; Kd 35 µM vs 4.5 µM.
As to `CC(C)C[C@H](NC(=O)[C@H](CCC(=O)O)NC(=O)[C@H](CC(=O)O)NC(=O)[C@H](CCC(=O)O)NC(=O)[C@@H](NC(=O)[C@H](CC(=O)O)NC(=O)CNC(=O)[C@H](COP(=O)(O)O)NC(=O)[C@H](CC(=O)O)NC(=O)[C@H](CCC(=O)O)NC(=O)[C@H](C)NC(=O)CNC(=O)[C@H](CC(N)=O)NC(=O)[C@H](CC(=O)O)NC(=O)[C@H](CCC(N)=O)NC(=O)CNC(=O)[C@H](CCC(=O)O)NC(=O)[C@H](CO)NC(=O)[C@H](CCC(N)=O)NC(=O)[C@@H](NC(=O)CNC(=O)[C@@H](N)CCC(=O)O)C(C)C)[C@@H](C)OP(=O)(O)O)C(=O)N[C@@H](CCCNC(=N)N)C(=O)O` (H-EGVQSEGQDNGAED[pS]GD[pT]EDELR-OH), the “difference in Kd between N-terminal and C-terminal fluorescein-tagged XRCC1 pS485,pT488 peptides” value is listed as “eightfold”.

The next assay addresses T2, hsNbs1(384), the N-terminal 384 …. Kind of assay: fluorescence polarisation; 100 nM FITC-labeled phosphopeptide with increasing hsNbs1(384); room temperature, 15 min incubation; 25 mM HEPES pH 7.4, 150 mM NaCl, 1 mM EDTA, 2 mM DTT, 0.05% Tween20, 0.1% BSA; one-site model. To be noted: both partners purified.
For B1, the affinity, expressed as Kd, was 98.7 µM. In turn, B2 came in with an equilibrium dissociation constant (Kd) of 90.5 µM.

B3: the dissociation constant (Kd) stood at 0.65 µM. The same measure, in the same setting: to B4 belongs 26.9 µM. In the case of B5, the affinity, expressed as Kd, was 4.5 µM. The same measure, in the same setting: with B6 the figure was 34.8 µM. Still for that read-out and setting: with B7 the figure was 90 µM; with B8, 2.64 µM. Still for that read-out and setting: to B9 belongs 22 µM; to B10, greater than 65 µM.

A further assay deals with T3, hsNbs1(384)(R28S,K29S,R43A) triple …. The assay is described as above. As to conditions: both partners purified.
B3 gave a Kd of 1.47 µM. On to B11, for which the affinity, expressed as Kd, was 1.6 µM.
